In the RNAGym collection of RNA variant scans (doi:10.7554/elife.80360):

B1: CPEB3 Ribozyme (parent)
chain: GGGGGCCACAGCAGAAGCGUUCACGUCGCGGCCCCUGUCAGAUUCUGGUGAAUCUGCGAAUUCUGCUGU

Variants of: B1
Test: self-cleavage, relative activity (ratio to wild type); higher = more cleavage; co-transcriptional
C27U A60U showed a self-cleavage of 0.205. U26C U55G showed a self-cleavage of 0.74. With C27G U38G the self-cleavage was 0.255. With U26C U69G the self-cleavage was 1.06. C27G C34A gave a self-cleavage of 0.207. With C27G A42U the self-cleavage was 0.136. Work on U26G C35U yielded a self-cleavage of 0.726. In the case of U26C U49A, the self-cleavage is reported as 0.984. With C27A G56A the self-cleavage was 0.276. For U26C C34U, the self-cleavage was 0.935. Work on U26C C34A yielded a self-cleavage of 0.731. Variant C27G C63A has a self-cleavage of 0.197. C27G G41C gave a self-cleavage of 0.176. Work on U26G C57U yielded a self-cleavage of 0.255. In the case of C27A U67G, the self-cleavage is reported as 0.635. For U26G U64G, the self-cleavage was 0.784. With C27G U36C the self-cleavage was 0.168. Work on C27G U36G yielded a self-cleavage of 0.14. Variant C27U A40C has a self-cleavage of 0.198. C27G G28A gave a self-cleavage of 0.147. Work on U26G G48A yielded a self-cleavage of 0.937. In the case of U26G G48C, the self-cleavage is reported as 0.959. Work on U26G G58C yielded a self-cleavage of 0.799. With C27A C29A the self-cleavage was 0.184. C27A C29U gave a self-cleavage of 0.21. Variant C27A C63G has a self-cleavage of 0.219. In the case of C27A C63U, the self-cleavage is reported as 0.463. C27G A51C showed a self-cleavage of 0.187. U26C G56A showed a self-cleavage of 0.855. For U26G G30A, the self-cleavage was 0.509. U26C G50A gave a self-cleavage of 0.953. Variant U26G U62G has a self-cleavage of 0.617. Variant U26G U62A has a self-cleavage of 0.818. U26G U49A gave a self-cleavage of 0.918. Variant U26A U64C has a self-cleavage of 0.72. With C27A U38G the self-cleavage was 0.141. U26G G28U showed a self-cleavage of 0.178. Work on U26G G28A yielded a self-cleavage of 0.183. U26G U36A showed a self-cleavage of 0.186. U26G C32U gave a self-cleavage of 0.922. For C27A U43C, the self-cleavage was 0.404. In the case of U26C C32U, the self-cleavage is reported as 0.974. U26C C32A gave a self-cleavage of 0.753. In the case of U26A U69A, the self-cleavage is reported as 0.938. In the case of U26G C66A, the self-cleavage is reported as 0.533. Variant U26G C66U has a self-cleavage of 0.888. C27G G68A showed a self-cleavage of 0.228. U26C C39A gave a self-cleavage of 0.79. In the case of C27G G31U, the self-cleavage is reported as 0.2. With U26C U62G the self-cleavage was 0.694. C27A G30U gave a self-cleavage of 0.232. With C27G G58A the self-cleavage was 0.16. With U26C G65U the self-cleavage was 0.604. In the case of C27G U44C, the self-cleavage is reported as 0.145. Variant C27G U44A has a self-cleavage of 0.212. With C27G U64C the self-cleavage was 0.254. Variant C27G A60C has a self-cleavage of 0.238. U26C U53G showed a self-cleavage of 0.873. U26C U53A showed a self-cleavage of 0.958. In the case of U26C A42G, the self-cleavage is reported as 0.924. U26G G37C gave a self-cleavage of 0.162. Work on C27A U64C yielded a self-cleavage of 0.343. Variant C27G G56A has a self-cleavage of 0.178. In the case of C27G G56U, the self-cleavage is reported as 0.156. Variant C27A U36A has a self-cleavage of 0.207. C27U A42U showed a self-cleavage of 0.167. Work on U26G A60G yielded a self-cleavage of 0.631. For U26G A60C, the self-cleavage was 0.361. C27A G68U showed a self-cleavage of 0.811. In the case of C27A G68C, the self-cleavage is reported as 0.765. C27A G48A gave a self-cleavage of 0.745. For C27A G48C, the self-cleavage was 0.652. Work on C27A G48U yielded a self-cleavage of 0.706. Variant U26C C33U has a self-cleavage of 0.997. U26C G48U showed a self-cleavage of 1.01. Variant U26G C34A has a self-cleavage of 0.57. Variant U26G C29A has a self-cleavage of 0.329. In the case of C27U A59U, the self-cleavage is reported as 0.212. With C27U A59G the self-cleavage was 0.246. With C27U A59C the self-cleavage was 0.127. In the case of C27G G47U, the self-cleavage is reported as 0.17. For C27G G47A, the self-cleavage was 0.265. With U26G G65U the self-cleavage was 0.53. For C27G U61C, the self-cleavage was 0.169. With C27G U61G the self-cleavage was 0.172. For C27A U49A, the self-cleavage was 0.763. Work on U26C C45A yielded a self-cleavage of 0.936. For U26C C45G, the self-cleavage was 0.983. With C27G U43A the self-cleavage was 0.133. For C27G U43G, the self-cleavage was 0.154. For C27U C29G, the self-cleavage was 0.114. With U26C C35A the self-cleavage was 0.254. U26G G41U gave a self-cleavage of 0.756. For U26G C27A, the self-cleavage was 0.458. Work on U26C G68C yielded a self-cleavage of 1.03. C27G C29A gave a self-cleavage of 0.186. Work on C27G C29U yielded a self-cleavage of 0.121. Work on C27G G65U yielded a self-cleavage of 0.164. C27G G65C showed a self-cleavage of 0.234. Work on U26G C45U yielded a self-cleavage of 0.982. U26G G47U showed a self-cleavage of 0.916. Work on U26G G47A yielded a self-cleavage of 0.893. U26G G31U gave a self-cleavage of 0.242. In the case of U26G G31C, the self-cleavage is reported as 0.131. C27A U53G showed a self-cleavage of 0.338. Variant C27A G47A has a self-cleavage of 0.734. In the case of C27G C57U, the self-cleavage is reported as 0.189. For U26C U43C, the self-cleavage was 0.892. Variant U26C U43A has a self-cleavage of 0.865. C27A C57G showed a self-cleavage of 0.298. With C27G A40G the self-cleavage was 0.243. C27G A40U gave a self-cleavage of 0.17. Variant U26G A42G has a self-cleavage of 0.78. C27A C54U showed a self-cleavage of 0.602. Work on C27A C54G yielded a self-cleavage of 0.156. In the case of U26C C27G, the self-cleavage is reported as 0.195. Variant U26C C27U has a self-cleavage of 0.182. In the case of U26C C27A, the self-cleavage is reported as 0.45. C27A G37A showed a self-cleavage of 0.203. In the case of C27G C54A, the self-cleavage is reported as 0.187. With C27G C66G the self-cleavage was 0.119. U26C A60G showed a self-cleavage of 0.85. In the case of C27A G31U, the self-cleavage is reported as 0.165. Work on C27A G31A yielded a self-cleavage of 0.171. For C27A G41U, the self-cleavage was 0.16. C27A G58C gave a self-cleavage of 0.605. Variant C27A C45U has a self-cleavage of 0.596. Variant C27A A52U has a self-cleavage of 0.547. Work on C27A A52G yielded a self-cleavage of 0.708. Work on C27A A59G yielded a self-cleavage of 0.353. U26A U55A showed a self-cleavage of 0.745. U26C U36G showed a self-cleavage of 0.123. C27A A60C gave a self-cleavage of 0.23. For U26C C66U, the self-cleavage was 0.939. Work on U26A U62C yielded a self-cleavage of 0.669. U26A U62G gave a self-cleavage of 0.652. For C27G G37A, the self-cleavage was 0.135. C27G G37U showed a self-cleavage of 0.165. C27A A51C showed a self-cleavage of 0.494. With C27A A51G the self-cleavage was 0.67. Work on C27A C32U yielded a self-cleavage of 0.543. In the case of U26A U67A, the self-cleavage is reported as 0.913. U26C G30C showed a self-cleavage of 0.486. For U26G U55C, the self-cleavage was 0.787. Work on U26G U55A yielded a self-cleavage of 0.737. C27G C33A gave a self-cleavage of 0.29. Work on C27G C33U yielded a self-cleavage of 0.188. U26A U61A showed a self-cleavage of 0.515. In the case of U26C G28C, the self-cleavage is reported as 0.1. U26G C63G showed a self-cleavage of 0.427. With C27A U46C the self-cleavage was 0.621. In the case of C27A U61A, the self-cleavage is reported as 0.28. C27A C35G showed a self-cleavage of 0.256. C27G G48C showed a self-cleavage of 0.241. With C27G G48U the self-cleavage was 0.163. C27G U55C showed a self-cleavage of 0.137. In the case of C27A C66U, the self-cleavage is reported as 0.516. C27G C45A gave a self-cleavage of 0.17. With C27G C45U the self-cleavage was 0.229. With C27G C39G the self-cleavage was 0.263. In the case of C27G C39A, the self-cleavage is reported as 0.166. Work on U26G U61A yielded a self-cleavage of 0.621. With U26G U61C the self-cleavage was 0.418. U26G A59U gave a self-cleavage of 0.455. In the case of U26C G37C, the self-cleavage is reported as 0.178. For C27G U69G, the self-cleavage was 0.29. Variant U26C C57U has a self-cleavage of 0.408.
